From PMC11754801, “The molecular basis of Human FN3K mediated phosphorylation of glycated substrates” (Nature Communications, 2025)

B1: HsFN3KΔ (human FN3K with internal loop truncation: amino acids 117-138 replaced with a GSS linker) (enzyme)
chain: MEQLLRAELRTATLRAFGGPGAGCISEGRAYDTDAGPVFVKVNRRTQARQMFEGEVASLEALRSTGLVRVPRPMKVIDLPGGGAAFVMEHLKMKSLSSQASKLGEQMADLHLYNQKGSSYVDKFGFHTVTCCGFIPQVNEWQDDWPTFFARHRLQAQLDLIEKDYADREARELWSRLQVKIPDLFCGLEIVPALLHGDLWSGNVAEDDVGPIIYDPASFYGHSEFELAIALMFGGFPRSFFTAYHRKIPKAPGFDQRLLLYQLFNYLNHWNHFGREYRSPSLGTMRRLLK
modifications: intermolecular disulfide between Cys24 of each protomer
notes: human FN3K, Gene ID 64122, residues before the truncated loop (117-138); linker that replaces amino acids 117-138; human FN3K, Gene ID 64122, residues after the truncated loop (117-138); Two molecules in the asymmetric unit, domain-swapped dimer; also called apo-HsFN3K; source: E. coli Rosetta 2 (DE3), purified (Ni-NTA, cation exchange, TEV cleavage, SEC); not shown: His6, N-terminal, cleaved

Assays:
[1] = target: Full-length (FL) wild-type human (Hs) FN3K, purified from insect cells (human) (UniProt Q9H479); assay: SEC; preparative gel filtration during purification from Sf9 cells; HiLoad 16/60 Superdex 75; 10 mM HEPES pH 7.5, 200 mM NaCl, 0.5 mM TCEP; monomeric and dimeric peaks
[2] = target: the molecule itself; assay: crystal structure; HsFN3KΔ crystals, space group P212121, two molecules in the asymmetric unit; apo and soaked with nucleotides and DMF

Molecule	stoichiometry N [1]	binding result [2]
Full-length (FL) wild-type human (Hs) FN3K, purified from insect cells (from UniProt Q9H479 1-309) (enzyme)	2	–
B1	–	binds
